Test results from patent US20240084003A1 (SIMCERE ZAIMING PHARMACEUTICAL, published 2024).
Positions count from the first letter of the chain named.

B1: HA22-hIgG1 (antibody, V domains shown)
VH: EVQLVESGGGLVKPGGSLKLSCAASGFAFSIYDMSWVRQTPEKCLEWVAYISSGGGTTYYPDTVKGRFTISRDNAKNTLYLQMSSLKSEDTAMYYCARHSGYGTHWGVLFAYWGQGTLVTVSA
VL: DIQMTQTTSSLSASLGDRVTISCRASQDISNYLNWYQQKPDGTVKLLIYYTSILHSGVPSRFSGSGSGTDYSLTISNLEQEDFATYFCQQGNTLPWTFGCGTKLEIKR
B2: F1.120.15 (antibody, human IgG1, kappa, V domains shown)
VH: QVQLQQSGPELVKPGASVKISCKASGNAFSNSWMNWVKQRPGKGLEWIGRVYSEDGDTQYNGKFRDKATLTADRSTSTAYMQLSSLTSEDSAVYFCARWLIYYGTYGAMDYWGQGTSVTVSS
VL: B1 VL with S30N, Q37H, Y50F, I53R, L54P, H55Y, F83I, C100G
notes: Human-murine chimeric IgG1, kappa
B3: F1.224.1 (antibody, human IgG1, kappa, V domains shown)
VH: EVLLHQSGPELVKPGASVKISCKASGYTFTDFNMDWVRQRHGQSLEWIGDVNPNNGGTIYNQKFKGKATLTVDKSSSTVYMDLRSLTSDDTAVYYCVRLGTSDYGEAWFISWGQGTVVTVSA
VL: DIVLTQSPASLAVSLGQRATISCRASQSVSTPRYSFMHWYQQKPGQPPKLLIKYASNLESGFPARFTGSGSGTDFTLNIHPVEEEDTAAYYCQQSWAIPWTFGGGTKLEIKR
notes: as for B2
B4: F1.200.11 (antibody, human IgG1, kappa, V domains shown)
VH: QNQLVQSGPELKKPGETVKISCKASGYTFTTAGMQWVQKMPGKGFKWIGWINTLSGEPKYAEDFKGRFAFSLETSATTAYLQISNLKNEDTATYFCARAYYSNLYWYFDVWGTGTTVTVSS
VL: DIVMTQSQKFMSTTVGDRVTITCKASQNVVTAVAWYQQKPGQSPKVLIYSASNRYSGVPDRFTGSGSGTDFTLTISNMHSEDLANYFCHQYSSYPFTFGSGTKLEIKR
notes: as for B2
B5: F1.105.11 (antibody, human IgG1, kappa, V domains shown)
VH: EVQLQQSGPVLVKPGASVKMSCKASGYTFSDYFMNWVKQSHGKSLEWIGIINSYSGGTSYNQKFKGKATLTVDKSSSTAYMELNSLTSEDSAVYYCARWMDYWGQGTSVTVSS
VL: DVQITQSPSYLAASPGETITINCRTSESISKHLAWYQEKPGKTNKLLIYSGSTLQSGIPSRFSGSGSGTDFTLTISSLEPEDFAMYYCQQHNEYPWTFGGGTKLEIKR
notes: as for B2
B6: F1.17.1 (antibody, human IgG1, kappa, V domains shown)
VH: QVQLKESGPGLVAPSQSLSITCTVSGFSLSRYTVHWVRQPPGKGLEWLGMIWGGGSTDYNSALKSRLSISKDNSKSQVFLKMNSLQTDDTAMYYCARPHDFDAGGFAYWGQGTLVTVSA
VL: QIVLTQSPAILSTSPGEKVTMTCSASSRVNYMYWYQQKPGSSPRLLIYDTSNLASGVPVRFSGSGSGTSYSLTISRMEAEDAATYYCQQWTSYPLTFGAGTKLELKR
notes: as for B2
B7: F2.180.16 (antibody, human IgG1, lambda, V domains shown)
VH: EVKLVESGGGLVLPGGSLKISCAASGFTFSDYYMYWIRQTPDKRLEWVAYISNTGYSTFYPDSVKGRFTVSRDNAKNTLYLQMSRLQSEDTAMYYCARHGILYAMDYWGQGTSVTVSS
VL: QPVLTQSSSASFSLGASAKLTCTLSSQYSTYTIGWYQQQPLKPPKYVMELKHDGSRHTGDGIPDRFSGSSSGADRYLSISNIQPEDEATYICGVGDTIKEQFMYVFGGGTKVTVLG
notes: Human-murine chimeric IgG1, lambda
B8: F1.216.2 (antibody, human IgG1, kappa, V domains shown)
VH: QVQLQQSGPEVVRPGASVKISCKASGYAFSSSWMNWMKQRPGKALEWIGRIYPGDGDTNYSGEFKVKATLTADKSSSTAYMQLSSLTSEDSAVYFCAREGSYYSNPWYFDYWGQGTTLTVSS
VL: DVLVTQTPLSLPVSLGDQASISCRSSQSIVQSNGDTYLEWYLQKPGQSPKLLIYKVSNRFSGVPDRFSGSGSGTDFTLKISRVEAEDLGVYYCFQGSHVPFTFGSGTKLEIKR
notes: as for B2
B9: F1.280.1 (antibody, human IgG1, kappa, V domains shown)
VH: QIQLVQSGPELKKPGETVKISCKASGYTFTTYGMSWVKQTPGKGLTWMGWINTDSGVPTYADDFKRRFAFSLEASATTAYLQINNLKNEDTATYFCARGGPDYWGQGTTLTVSS
VL: DILLTQSPATLSVTPGETVSLSCRASQSIYKNLHWYHQKSHRSPRLLIKYASDSISGIPSRFTGSGSGTNFTLSINSVKPEDEGIYYCLQGYIVPLTFGAGTKLELKR
notes: as for B2
B10: F1.257.3 (antibody, human IgG1, kappa, V domains shown)
VH: QVQLQQSGPELARPGASVKLSCKASGYTFTSYGISWVKQRTGQDLEWIGEIYPKLGTTYYNEKFKDKATLTTDRSSSTAYMALRSLTSEDSAVYFCACPHYYATRGGDYWGQGTTLTVSS
VL: EIVLTQSPATLSVTPGDSVTFSCRASQSISNHLHWYQQKSHESPRLLIRYASQSISGIPSRFSGSGSGTDFTLSLSSVETEDFGVYFCQQSHSWPYTFGGGTKLEIAR
notes: as for B2

Each binder was assayed against T1, monkey CD22 protein (ACROBiosystems, SI2-R52Ha) (monkey (rhesus monkey in paragraph 148), UniProt H9G1X2 18-686) (assay: ELISA, monkey CD22-ECD-His coated).
T1 construct: extracellular domain; also called monkey CD22-ECD; monkey CD22-ECD-His
T1 sequence: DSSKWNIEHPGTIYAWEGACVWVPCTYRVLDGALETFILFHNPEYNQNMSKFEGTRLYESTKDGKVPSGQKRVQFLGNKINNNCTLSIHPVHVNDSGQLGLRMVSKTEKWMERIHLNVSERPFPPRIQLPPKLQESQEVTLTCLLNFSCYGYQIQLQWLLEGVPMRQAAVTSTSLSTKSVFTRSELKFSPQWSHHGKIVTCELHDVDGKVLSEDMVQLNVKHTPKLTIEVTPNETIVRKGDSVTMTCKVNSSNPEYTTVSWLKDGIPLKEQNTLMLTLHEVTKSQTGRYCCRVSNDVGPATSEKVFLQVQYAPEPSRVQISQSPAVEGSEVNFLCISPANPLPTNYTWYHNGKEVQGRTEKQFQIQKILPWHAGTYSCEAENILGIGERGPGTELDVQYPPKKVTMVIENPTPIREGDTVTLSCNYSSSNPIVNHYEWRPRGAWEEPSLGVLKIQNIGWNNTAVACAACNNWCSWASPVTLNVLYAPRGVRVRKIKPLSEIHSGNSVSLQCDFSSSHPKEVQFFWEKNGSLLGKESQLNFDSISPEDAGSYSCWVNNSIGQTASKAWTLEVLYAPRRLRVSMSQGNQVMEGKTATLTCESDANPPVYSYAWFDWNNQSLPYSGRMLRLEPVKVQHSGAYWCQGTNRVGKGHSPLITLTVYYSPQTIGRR
Description: In order to detect the binding activity of CD22 human-murine chimeric antibodies to CD22 protein, the purified human CD22-ECD-His protein obtained in Example 2 was diluted with PBS to a final concentration of 2 μg/mL, and then added to 96-well ELISA plate at 100 μl/well. The plate was sealed with plastic film and incubated overnight at 4° C., the plate was washed 2 times with PBS the next day, and then a blocking solution [PBS+2% (w/w) BSA] was added for blocking at room temperature for 2 hours. […] After incubation at 37° C. for 2 hours, the plate was washed 3 times with PBS. HRP (horseradish peroxidase)-labeled secondary antibody (purchased from Sigma, catalog number: A0170) was added, and incubated at 37° C. for 2 hours, and the plate was washed 5 times with PBS. TMB substrate was added at 50 μl/well, and incubated at room temperature for 30 minutes, then a stop solution (1.0 N HCl) was added at 50 μl/well.
In order to detect the species cross-binding activity of the chimeric antibodies, an ELISA plate was coated with commercial murine CD22 protein (ACROBiosystems, catalog number: SI2-M52Ha) and monkey CD22 protein (ACROBiosystems, catalog number: SI2-R52Ha), respectively, and the ELISA detection was performed according to the method in Example 5.1.
With B1 the “EC50 (read off the curve)” value was ~0.05 nM.
With B2 the “EC50 (read off the curve)” value was ~0.2 nM.
With B3 the “EC50 (read off the curve)” value was ~0.04 nM.
With B4 the “EC50 (read off the curve)” value was ~1 nM.
For B5, the “EC50 (read off the curve)” value was ~0.1 nM.
With B6 the “EC50 (read off the curve)” value was ~0.02 nM.
B7: no binding (tested: 100 nM).
In the case of B8, the “EC50 (read off the curve)” value is reported as ~0.01 nM.

Each binder was assayed against T2, human CD22-ECD-His protein (human, UniProt P20273 20-687) (assay: ELISA, Ab 100.00 nM).
T2 construct: Made in house in HEK293E; also called hCD22-ECD-His; recombinant human CD22-ECD His protein; not shown: His tag
T2 sequence: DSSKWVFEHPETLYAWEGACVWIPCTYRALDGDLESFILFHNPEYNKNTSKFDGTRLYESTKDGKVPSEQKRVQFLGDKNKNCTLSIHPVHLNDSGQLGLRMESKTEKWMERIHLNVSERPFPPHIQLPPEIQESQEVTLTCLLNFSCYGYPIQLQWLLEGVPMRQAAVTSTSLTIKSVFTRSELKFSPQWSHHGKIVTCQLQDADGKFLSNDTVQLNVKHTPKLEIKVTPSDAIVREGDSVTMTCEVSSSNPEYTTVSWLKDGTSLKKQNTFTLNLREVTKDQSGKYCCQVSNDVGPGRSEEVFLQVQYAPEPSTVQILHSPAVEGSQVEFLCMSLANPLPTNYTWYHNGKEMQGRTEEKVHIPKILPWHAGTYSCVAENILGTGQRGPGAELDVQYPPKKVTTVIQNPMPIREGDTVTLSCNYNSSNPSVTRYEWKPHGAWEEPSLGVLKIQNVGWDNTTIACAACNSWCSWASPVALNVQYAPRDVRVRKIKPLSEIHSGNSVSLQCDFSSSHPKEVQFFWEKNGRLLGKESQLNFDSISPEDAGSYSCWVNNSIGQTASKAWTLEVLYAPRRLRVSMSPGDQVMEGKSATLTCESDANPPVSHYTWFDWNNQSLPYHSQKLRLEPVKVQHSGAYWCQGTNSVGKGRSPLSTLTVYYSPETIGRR
Outline: (§1)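 Coat: CD22-ECD-His 2 μg/mL PBS, 4 °C o/n. Block PBS/2% BSA 2 h RT. Ab 2 h 37 °C; HRP 2° 2 h 37 °C; TMB 30 min RT, 1.0 N HCl stop.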
Work on B1 yielded an OD450 of 2.65 OD450.
B2 showed an OD450 of 2.89 OD450.
B9 was tested, and the OD450 was 2.46 OD450.
B3 gave an OD450 of 3.12 OD450.
For B4, the OD450 was 2.34 OD450.
B5 gave an OD450 of 2.79 OD450.
With B10 the OD450 was 2.83 OD450.
B6 was tested, and the OD450 was 2.86 OD450.
Work on B7 yielded an OD450 of 2.61 OD450.
With B8 the OD450 was 2.69 OD450.

These binders were tested against T3, human CD22 domain5-7-His (human, UniProt P20273 414-687) (assay: ELISA, human CD22 domain5-7-His coated).
T3 construct: also called hCD22 domain5-7-His; not shown: His tag
T3 sequence: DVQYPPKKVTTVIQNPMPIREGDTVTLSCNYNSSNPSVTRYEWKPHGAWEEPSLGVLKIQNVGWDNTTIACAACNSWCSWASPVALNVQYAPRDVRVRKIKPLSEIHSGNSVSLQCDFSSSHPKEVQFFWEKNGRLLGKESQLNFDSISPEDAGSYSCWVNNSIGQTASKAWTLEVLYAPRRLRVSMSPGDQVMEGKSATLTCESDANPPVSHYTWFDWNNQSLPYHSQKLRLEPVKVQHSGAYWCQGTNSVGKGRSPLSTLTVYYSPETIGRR
B1: no binding (tested: 100 nM).
B2: no binding (tested: 100 nM).
B9: no binding (tested: 100 nM).
B3: no binding (tested: 100 nM).
For B4, the “EC50 (read off the curve)” value was ~0.03 nM.
In the case of B5, the “EC50 (read off the curve)” value is reported as ~0.1 nM.
B10: no binding (tested: 100 nM).
B6: no binding (tested: 100 nM).
B8: no binding (tested: 100 nM).

What follows are binders tested against T2, human CD22-ECD-His protein (assay: ELISA, Ab 10.00 nM).
Outline: as §1
B1 gave an OD450 of 2.61 OD450.
For B2, the OD450 was 2.61 OD450.
B9 was tested, and the OD450 was 2.3 OD450.
B3 gave an OD450 of 2.43 OD450.
B4 gave an OD450 of 2.33 OD450.
In the case of B5, the OD450 is reported as 2.68 OD450.
Work on B10 yielded an OD450 of 2.64 OD450.
Work on B6 yielded an OD450 of 2.21 OD450.
With B7 the OD450 was 2.08 OD450.
Binder B8 has an OD450 of 2.53 OD450.

These binders were tested against T2, human CD22-ECD-His protein (assay: ELISA, human CD22-ECD-His coated).
Outline: as §1
B1 was tested, and the “EC50 (read off the curve)” value was ~0.02 nM.
B2 was tested, and the “EC50 (read off the curve)” value was ~0.02 nM.
With B9 the “EC50 (read off the curve)” value was ~0.02 nM.
B3 was tested, and the “EC50 (read off the curve)” value was ~0.02 nM.
For B4, the “EC50 (read off the curve)” value was ~0.03 nM.
For B5, the “EC50 (read off the curve)” value was ~0.04 nM.
B10 was tested, and the “EC50 (read off the curve)” value was ~0.06 nM.
For B6, the “EC50 (read off the curve)” value was ~0.03 nM.
In the case of B8, the “EC50 (read off the curve)” value is reported as ~0.006 nM.
